Results on three molecules are retold here after patent publication CN113512113A (THE FIRST AFFILIATED HOSPITAL COLLEGE OF MEDICINE ZHEJIANG …, dated 2021).

The target of this assay is SARS-Cov-2的生物素化RBD(NC_045512) (SARS-CoV-2, UniProt P0DTC2 319-541).

A value given as a limit tells only on which side of the number the result lay.

A word on the Kd: it is a measure of binding affinity in units of concentration. The low end stands for a tighter complex, the high end for a looser complex.

B1: CZ-D7 (antibody, V domains shown)
VH: QVQLVQSGAEVKTPGSSVKVSCKASGGSFSNYAISWVRQAPGQGLEWMGRIIATLGISNYAQKFQGRVTMTADKSTSTAYMELSSLRSEDTAVYYCASPITNFGVLIEVDAFHIWGQGTMVTVSS
VL: EIVLTQSPFTLSLSPGERATLSCGASQSVSSSYLAWYQQKPGLAPRLLIYDGSSRATDIPDRFSGSGSGTDFTLTISRLEPEDFAMYYCQQYSTSPLTFGGGTKVEIKR
In turn, B1 had a Kd of less than 0.001 nM.

B2: SW-A9 (antibody, V domains shown)
VH: QMQLVQSGPEVKKPGTSVKVSCKASGFTFTNSAMQWVRQARGQRLEWVGWIVVASGNANSARRFHDRVTITSDMSTSTAYLELSSLRSEDTAVYYCALNHCSNTTCLDGFDIWGQGTMVSVSS
VL: EIVLTQSPVTLSLSPGERATLSCRASQSVRNSLLAWYQQKPGQAPRLLIYAASSRATGIPDRFSGSGSGTDFTLTISRLEPEDFVVYYCQQHGSSPPWTFGQGTKVEFKR
Take B2: the Kd was less than 0.001 nM.

B3: SW-B1 (antibody, V domains shown)
VH: QVQLVQSGAEVKKPGASVKVSCTASGDTFTTYYMNWMRQAPGQGLEWMGIINPSGGSTSYAQKFQGRVTMTRDTSRSTVYMELSSLRSEDTAVYYCATPSLEEAEGGPQLAFDIWGQGTMVTVSS
VL: not shown
In turn, B3 showed a Kd of 0.0943 nM.
